Numbering of substitutions follows the chain as printed.
B1: t865771 (protein)
chain: MGNTTSIAGRDCLISALGGNSALAVFPNELLWTADVHEYNLNLPVTPAAITYPETAAQIAGVVKCASDYDYKVQARSGGHSFGNYGLGGADGAVVVDMKHFTQFSMDDETYEAVIGPGTTLNDVDIELYNNGKRAMAHGVCPTIKTGGHFTIGGLGPTARQWGLALDHVEEVEVVLANSSIVRASNTQNQDVFFAVKGAAANFGIVTEFKVRTEPAPGLAVQYSYTFNLGSTAEKAQFVKDWQSFISAKNLTRQFYNNMVIFDGDIILEGLFFGSKEQYDALGLEDHFAPKNPGNILVLTDWLGMVGHALEDTILKLVGNTPTWFYAKSLGFRQDTLIPSAGIDEFFEYIANHTAGTPAWFVTLSLEGGAINDVAEDATAYAHRDVLFWVQLFMVNPVGPISDTTYEFTNGLYDVLARAVPESVGHAYLGCPDPRMEDAQQKYWRTNLPRLQELKEELDPKNTFHHPQGVMPA
modifications: expressed in S. cerevisiae strain
B2: t865728 (protein)
chain: B1 chain with H287R, A341S, N410D
B3: t865750 (protein)
chain: B1 chain with S180T, N410D
modifications: expressed in S. cerevisiae strain
B4: t865711 (protein)
chain: B1 chain with N122G, V398F, N410D
B5: t865749 (protein)
chain: B1 chain with Y71I, N410D
modifications: expressed in S. cerevisiae strain
B6: t865805 (protein)
chain: B1 chain with T55S, I126T, N410D
modifications: expressed in S. cerevisiae strain
B7: t878464 (protein)
chain: B1 chain with R183T, N410D
modifications: expressed in S. cerevisiae strain
B8: t865739 (protein)
chain: B1 chain with N410D, R450K
B9: t865690 (protein)
chain: B1 chain with N122A, I126T, N410D
B10: t865689 (protein)
chain: B1 chain with N122G, I126R, N410D

Key:
[1] = test system: CBCA, THCA, and CBDA production; assay: In vivo TS activity assay, Example 2 protein engineering of A. niger CBCAS, cultures fed olivetolic acid; format: cell-based, S. cerevisiae; settings: for average CBCA titer compared with the A. niger positive control / Mean CBCA / Mean CBDA / Mean THCA: secondary screen; for Mean CBCA / Mean CBDA / Mean THCA: olivetolic acid (Table 8); for % CBCA / % CBDA / % THCA: share of terminal cannabinoid product profile
Method: (§1) An assay to detect TS activity was conducted as follows: each thawed glycerol stock of candidate CBCAS transformants was stamped into a well of YEP+4% dextrose media. Samples were incubated at 30° C. in a shaking incubator for 2 days. A portion of each of the resulting cultures was stamped into a well of YEP+4% galactose+1 mM olivetolic acid (FIG. 1 Structure 6a). Samples were incubated at 20° C. and shaken in a shaking incubator for 4 days. Every 24 hours during those 4 days, 2% galactose and 1 mM olivetolic acid were spiked into the cultures. Sodium citrate buffer adjusted to pH 5.5 was added to each well at a final concentration of 100 mM. Samples were incubated at 20° C. and shaken in a shaking incubator for 2 days. A portion of each of the resulting production cultures was stamped into a well of phosphate buffered saline (PBS). Optical measurements were taken on a plate reader, with absorbance measured at 600 nm and fluorescence at 528 nm with 485 nm excitation. Samples were incubated at 30° C. in a shaking incubator for 2 days. 100% methanol was stamped into the production cultures in half-height deepwell plates. Plates were heat sealed and frozen. Samples were then thawed for 30 min and spun down at 4° C. A portion of the supernatant was stamped into half-area 96 well plates. CBCA, THCA, and CBDA production in the samples was quantified via liquid chromatography-mass spectrometry (LC-MS).
(§2) To determine whether engineering of the A. niger CBCAS identified in Example 1 (corresponding to SEQ ID NO: 29 (with signal peptides); SEQ ID NO: 27 (without signal peptides and including an N-terminal methionine (UniProt accession No. A0A254UC34)); or SEQ ID NO: 25 (without signal peptides and without the N-terminal methionine)), could alter CBCAS substrate specificity, product specificity and/or amounts of products produced, point mutations were generated in A. niger CBCAS and the mutant versions of the protein were expressed in S. cerevisiae. A library containing 1047 A. niger CBCAS mutants was generated and screened. As in Example 1, each CBCAS mutant in the library, as well as the enzymes expressed by positive control strains, included an N-terminal MFalpha2 signal peptide (SEQ ID NO: 16) (with a methionine residue added at the N-terminus of the MFalpha2 signal peptide) and a C-terminal HDEL signal peptide (SEQ ID NO: 17).
Production of compounds of Formulae (9), (10), and/or (11), including compounds of Formulae (9a), (10a), and/or (11a) by strains expressing the mutated versions of A. niger CBCAS was quantified and compared to the production of the same compounds by a strain expressing wild-type A. niger CBCAS, a strain expressing a C. sativa THCAS, and a strain expressing a C. sativa CBDAS. The strains were screened using the same assay described in Example 1. Production of CBCA, THCA, and/or CBDA in the samples was quantified via LC-MS.
(§3) Of the original 1047 library members, 55 strains were elevated to a secondary screen to verify CBCA production. The experimental protocol for the secondary screen was identical to the primary screen, except that additional biological replicates were included per strain, and replicate production cultures for each strain were separately fed 1 mM boluses of olivetolic acid or 1 mM boluses of divaric acid. All strains were screened in quadruplicate.

[2] = test system: CBCVA, THCVA, and CBDVA production; assay: In vivo TS activity assay, Example 2 protein engineering of A. niger CBCAS, cultures fed divaric acid; format: cell-based, S. cerevisiae; settings: for Mean CBCVA / Mean CBDVA / Mean THCVA: S. cerevisiae strains expressing A. niger CBCAS mutants; for Mean CBCVA / Mean CBDVA / Mean THCVA / average CBCVA titer compared with the A. niger positive control: secondary screen; for Mean CBCVA / Mean CBDVA / Mean THCVA / % CBCVA / % CBDVA / % THCVA: fed divaric acid; for % CBCVA / % CBDVA / % THCVA: share of terminal cannabinoid product profile
Method: as §1, §2, §3

| Molecule | average CBCA titer compared with the A. niger positive control [1] | Mean CBCA [1] [µg/L] | Mean CBDA [1] [µg/L] | Mean THCA [1] [µg/L] | % CBCA [1] [%] | % CBDA [1] [%] | % THCA [1] [%] | Mean CBCVA [2] [µg/L] | Mean CBDVA [2] [µg/L] | Mean THCVA [2] [µg/L] | % CBCVA [2] [%] | % CBDVA [2] [%] | % THCVA [2] [%] | average CBCVA titer compared with the A. niger positive control [2] |
| --- | --- | --- | --- | --- | --- | --- | --- | --- | --- | --- | --- | --- | --- | --- |
| B1 | higher | 40971.16 | 8309.68 | 2638.90 | 78.91 | 16.00 | 5.08 | 1592.02 | 0.00 | 968.82 | 62.17 | 0.00 | 37.83 |  |
| B2 | higher | 36875.12 | 8996.37 | 2692.19 | 75.93 | 18.52 | 5.54 | 3907.72 | 0.00 | 1759.32 | 68.96 | 0.00 | 31.04 | higher |
| B3 | higher | 39940.41 | 10807.90 | 2475.89 | 75.04 | 20.31 | 4.65 | 5745.78 | 0.00 | 2770.13 | 67.47 | 0.00 | 32.53 | higher |
| B4 | higher | 33994.02 | 9666.71 | 2096.22 | 74.29 | 21.13 | 4.58 | 2442.93 | 0.00 | 1315.45 | 65.00 | 0.00 | 35.00 |  |
| B5 | higher | 37290.06 | 6071.00 | 2140.74 | 81.95 | 13.34 | 4.70 | 2230.06 | 0.00 | 997.07 | 69.10 | 0.00 | 30.90 |  |
| B6 | higher | 34567.68 | 8917.97 | 2285.23 | 75.52 | 19.48 | 4.99 | 3077.84 | 0.00 | 1538.55 | 66.67 | 0.00 | 33.33 |  |
| B7 | higher | 38911.71 | 9203.22 | 2062.10 | 77.55 | 18.34 | 4.11 | 5383.16 | 0.00 | 2710.86 | 66.51 | 0.00 | 33.49 | higher |
| B8 | higher | 40214.21 | 10767.85 | 2538.89 | 75.14 | 20.12 | 4.74 | 4265.42 | 0.00 | 2039.44 | 67.65 | 0.00 | 32.35 | higher |
| B9 | higher | 38065.26 | 8288.48 | 2186.36 | 78.42 | 17.08 | 4.50 | 2557.72 | 0.00 | 1441.19 | 63.96 | 0.00 | 36.04 |  |
| B10 | higher | 38241.90 | 10157.65 | 2452.92 | 75.20 | 19.97 | 4.82 | 6333.32 | 0.00 | 2791.18 | 69.41 | 0.00 | 30.59 | higher |

Reference: patent US20230137139A1, “BIOSYNTHESIS OF CANNABINOIDS AND C[…]” (priority 2020, published 2023)
